The data set deals with Escherichia coli TOP10. The experiment in a line: shrunken log2 fold change of peptide-encoding DNA abundance (4.5 h post-induction vs induction); higher = less antimicrobial activity (less host growth inhibition). Conditions: time post-induction: 4.5 h; library: site-saturation at positions 5, 18, 19, 20.
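Note: peptides expressed intracellularly from a pBAD plasmid library in pooled LB shake-flask culture, induced with 0.3% L-arabinose, DNA abundance read by NGS, three biological replicates, DESeq2 with apeglm shrinkage.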

In the case of RRIRSRPPRLPRPRPRPWKKPRP, the “shrunken log2 fold change” value was -0.162.
As for RRIRWRPPRLPRPRPRPKVWPRP, the “shrunken log2 fold change” value was 0.68.
Under RRIRMRPPRLPRPRPRPHESPRP stands 0.432; under RRIRQRPPRLPRPRPRPFCNPRP, 0.0828; under RRIRGRPPRLPRPRPRPDCPPRP, 0.22.
The figure for RRIRRRPPRLPRPRPRPHDNPRP is -0.13; for RRIRLRPPRLPRPRPRPQKHPRP it is -0.299; for RRIRVRPPRLPRPRPRPRMQPRP it is 0.123.
The figure for RRIRMRPPRLPRPRPRPAKQPRP is 1.12; for RRIRSRPPRLPRPRPRPRYIPRP it is -0.707; for RRIRSRPPRLPRPRPRPWSIPRP it is 0.0338.
RRIRRRPPRLPRPRPRPHAAPRP: the “shrunken log2 fold change” value is 0.837.
Take RRIRARPPRLPRPRPRPLAFPRP: the “shrunken log2 fold change” value was determined as 0.703.
On to RRIRKRPPRLPRPRPRPTIRPRP, for which the “shrunken log2 fold change” value was -0.241.
Take RRIRMRPPRLPRPRPRPWILPRP: the “shrunken log2 fold change” value is -0.201.
The figure for RRIRGRPPRLPRPRPRPTDEPRP is 0.573.
The figure for RRIRARPPRLPRPRPRPRQYPRP is -0.294; for RRIRERPPRLPRPRPRPTRKPRP it is 0.0197; for RRIRARPPRLPRPRPRPAEYPRP it is -0.0257.
With RRIRMRPPRLPRPRPRPKGQPRP, the “shrunken log2 fold change” value amounted to 1.28.
The figure for RRIRYRPPRLPRPRPRPPFNPRP is -0.309.
As for RRIRYRPPRLPRPRPRPMPFPRP, the “shrunken log2 fold change” value stood at 0.00489.
The figure for RRIRDRPPRLPRPRPRPQPYPRP is -0.651.
The figure for RRIRERPPRLPRPRPRPLNAPRP is -0.113; for RRIRTRPPRLPRPRPRPEHHPRP it is -0.203; for RRIRDRPPRLPRPRPRPEKGPRP it is 0.71.
The figure for RRIRQRPPRLPRPRPRPIHLPRP is -0.137; for RRIRYRPPRLPRPRPRPPASPRP it is 0.249.
As to RRIRYRPPRLPRPRPRPWKVPRP, the “shrunken log2 fold change” value was -0.498.
Under RRIRQRPPRLPRPRPRPNGSPRP stands -0.00154; under RRIRSRPPRLPRPRPRPYRVPRP, -0.0218.
Under RRIRERPPRLPRPRPRPSGVPRP stands -0.157; under RRIRGRPPRLPRPRPRPKDPPRP, 0.517; under RRIRMRPPRLPRPRPRPCHHPRP, -0.353.
The figure for RRIRQRPPRLPRPRPRPTKWPRP is 0.25; for RRIRDRPPRLPRPRPRPNNPPRP it is -0.357.
Consider RRIRWRPPRLPRPRPRPKKQPRP, for which the “shrunken log2 fold change” value worked out at 0.176.
Regarding RRIRHRPPRLPRPRPRPQHKPRP, the “shrunken log2 fold change” value was -0.494.
Under RRIRPRPPRLPRPRPRPGMQPRP stands 0.515; under RRIRKRPPRLPRPRPRPRAIPRP, 0.304.
Under RRIRFRPPRLPRPRPRPAEQPRP stands 1.16.
The figure for RRIRCRPPRLPRPRPRPMQDPRP is -0.0947.
With RRIRNRPPRLPRPRPRPHSEPRP, the “shrunken log2 fold change” value is -0.438.
The figure for RRIRFRPPRLPRPRPRPDHLPRP is -0.00942; for RRIRKRPPRLPRPRPRPCSHPRP it is 0.0663; for RRIRNRPPRLPRPRPRPGYPPRP it is 0.0226.
For the sequence RRIRPRPPRLPRPRPRPAWPPRP, the “shrunken log2 fold change” value worked out at 0.6.
The figure for RRIRVRPPRLPRPRPRPVVRPRP is 0.129; for RRIRERPPRLPRPRPRPNQAPRP it is -0.0316.
As to RRIRERPPRLPRPRPRPATAPRP, the “shrunken log2 fold change” value came to 0.147.
The figure for RRIRPRPPRLPRPRPRPGVLPRP is 0.219; for RRIRWRPPRLPRPRPRPIAHPRP it is -0.074.
Under RRIRKRPPRLPRPRPRPILFPRP stands -0.0861.
Under RRIRARPPRLPRPRPRPNNDPRP stands 0.026; under RRIRSRPPRLPRPRPRPWKWPRP, 0.0473; under RRIRWRPPRLPRPRPRPHESPRP, -0.262.
With RRIRYRPPRLPRPRPRPHRWPRP, the “shrunken log2 fold change” value was -0.0477.
Under RRIRERPPRLPRPRPRPFDWPRP stands 0.0619; under RRIRVRPPRLPRPRPRPQKPPRP, 0.116.
Under RRIRPRPPRLPRPRPRPCDVPRP stands -0.155; under RRIRFRPPRLPRPRPRPEWKPRP, 0.0211; under RRIRKRPPRLPRPRPRPNTRPRP, -0.0607.
The figure for RRIRMRPPRLPRPRPRPAGCPRP is 0.842; for RRIRGRPPRLPRPRPRPDQYPRP it is -0.212.
Consider RRIRERPPRLPRPRPRPQRGPRP, for which the “shrunken log2 fold change” value was -0.0773.
RRIRLRPPRLPRPRPRPFWVPRP: the “shrunken log2 fold change” value was -0.11.
The figure for RRIRQRPPRLPRPRPRPPLTPRP is 0.0676; for RRIRLRPPRLPRPRPRPGPKPRP it is 0.352.
Under RRIRSRPPRLPRPRPRPPGIPRP stands 0.157; under RRIRRRPPRLPRPRPRPIEVPRP, 0.0048; under RRIRCRPPRLPRPRPRPCITPRP, -0.0767.
The figure for RRIRFRPPRLPRPRPRPIKNPRP is -0.514; for RRIRMRPPRLPRPRPRPCLYPRP it is -0.331; for RRIRTRPPRLPRPRPRPYLVPRP it is -0.489.
RRIRMRPPRLPRPRPRPKYGPRP: the “shrunken log2 fold change” value was 0.0382.
On to RRIRIRPPRLPRPRPRPNTPPRP, for which the “shrunken log2 fold change” value is -0.487.
Under RRIRVRPPRLPRPRPRPDYWPRP stands -0.449.
Under RRIRGRPPRLPRPRPRPWFEPRP stands -0.111; under RRIRIRPPRLPRPRPRPCLFPRP, -0.639; under RRIRGRPPRLPRPRPRPNPAPRP, 0.231.
Under RRIRGRPPRLPRPRPRPEYTPRP stands 0.335; under RRIRPRPPRLPRPRPRPWVGPRP, 0.0889; under RRIRNRPPRLPRPRPRPQEPPRP, 0.084.
Turning to RRIRQRPPRLPRPRPRPDVRPRP, the “shrunken log2 fold change” value is -0.023.
Under RRIRNRPPRLPRPRPRPRKMPRP stands 0.263; under RRIRCRPPRLPRPRPRPYMRPRP, -0.142.
Under RRIRTRPPRLPRPRPRPLTSPRP stands -0.255; under RRIRPRPPRLPRPRPRPTNMPRP, -0.298; under RRIRNRPPRLPRPRPRPCVKPRP, -0.13.
Take RRIRWRPPRLPRPRPRPPEPPRP: the “shrunken log2 fold change” value was -0.011.
Under RRIRGRPPRLPRPRPRPGKRPRP stands 0.249; under RRIRIRPPRLPRPRPRPYTFPRP, -2.16; under RRIRCRPPRLPRPRPRPVYGPRP, -0.747.
Regarding RRIRERPPRLPRPRPRPFSIPRP, the “shrunken log2 fold change” value was 0.00587.
Under RRIRKRPPRLPRPRPRPTLYPRP stands 0.0394.
Under RRIRDRPPRLPRPRPRPILCPRP stands 0.0322; under RRIRQRPPRLPRPRPRPPGGPRP, 0.448; under RRIRKRPPRLPRPRPRPNVIPRP, 0.0501.
Under RRIRDRPPRLPRPRPRPGWAPRP stands 0.718; under RRIRMRPPRLPRPRPRPVHRPRP, 0.872; under RRIRWRPPRLPRPRPRPIDIPRP, -0.535.
Regarding RRIRRRPPRLPRPRPRPYTPPRP, the “shrunken log2 fold change” value is -0.225.
Take RRIRRRPPRLPRPRPRPDDWPRP: the “shrunken log2 fold change” value is 0.359.
Under RRIRMRPPRLPRPRPRPRMIPRP stands -0.0577; under RRIRIRPPRLPRPRPRPMAIPRP, -0.274; under RRIRPRPPRLPRPRPRPWHLPRP, -0.233.
Under RRIRYRPPRLPRPRPRPHSTPRP stands -0.181.
Under RRIRGRPPRLPRPRPRPMVFPRP stands 0.78.
Take RRIRARPPRLPRPRPRPDCCPRP: the “shrunken log2 fold change” value turned out to be 0.172.
For the sequence RRIRHRPPRLPRPRPRPSDDPRP, the “shrunken log2 fold change” value is -0.0349.
The figure for RRIRDRPPRLPRPRPRPCQEPRP is 0.211.
The figure for RRIRIRPPRLPRPRPRPVVKPRP is -0.151; for RRIRSRPPRLPRPRPRPDFHPRP it is -0.751; for RRIRRRPPRLPRPRPRPNGCPRP it is 0.00793.
Under RRIRFRPPRLPRPRPRPVGHPRP stands -0.0219.
In the case of RRIRKRPPRLPRPRPRPDRVPRP, the “shrunken log2 fold change” value was -0.00884.
Under RRIRKRPPRLPRPRPRPMAKPRP stands 0.545; under RRIRRRPPRLPRPRPRPPFQPRP, 0.746.
Turning to RRIRFRPPRLPRPRPRPSKIPRP, the “shrunken log2 fold change” value was determined as 0.903.
The figure for RRIRARPPRLPRPRPRPFMCPRP is 0.618.
The figure for RRIRRRPPRLPRPRPRPKYRPRP is -0.000605; for RRIRVRPPRLPRPRPRPYKMPRP it is -0.428; for RRIRKRPPRLPRPRPRPFDDPRP it is -0.131.
Under RRIRVRPPRLPRPRPRPANCPRP stands 0.031.
For the sequence RRIRTRPPRLPRPRPRPGKMPRP, the “shrunken log2 fold change” value was found to be 0.181.

The record behind these values is the supplement of paper PMC9112550, “Optimization of the antimicrobial peptide Bac7 by deep mutational scanning” (BMC Biology, 2022).
